The results in this text go back to paper PMC3658276, “Plant stem cell maintenance involves direct transcriptional repression of differentiation program”.

The target of this data set is T1, WUSCHEL (His-WUS) (UniProt Q9SB92 1-292).
T1 sequence: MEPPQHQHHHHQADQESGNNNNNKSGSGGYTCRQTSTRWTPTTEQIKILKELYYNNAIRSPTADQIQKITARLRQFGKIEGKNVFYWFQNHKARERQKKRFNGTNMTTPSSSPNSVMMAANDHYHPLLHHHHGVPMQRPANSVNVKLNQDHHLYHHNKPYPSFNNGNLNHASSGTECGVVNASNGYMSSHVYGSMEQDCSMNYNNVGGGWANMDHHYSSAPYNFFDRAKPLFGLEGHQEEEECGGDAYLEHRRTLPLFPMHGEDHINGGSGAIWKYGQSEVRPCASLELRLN
Put plainly: EMSA; supershift with anti-WUS antibody; EMSA conditions not given; as in Yadav et al 2011. Conditions: protein: recombinant; tags: His; chain copies: 2; (radiolabeled).

B1: KAN1 -1100 oligo (dsDNA)
DNA 1: TACTGATATTTAATGTATATTTATCTCT
DNA 2: AGAGATAAATATACATTAAATATCAGTA
B1: the binding result is listed as “binds”.

B2: KAN1 1050 oligo (dsDNA)
DNA 1: TCTTACACTAATACTATATTTACACATG
DNA 2: CATGTGTAAATATAGTATTAGTGTAAGA
In the case of B2, the binding result is “binds”.
